The target in the test is PANA_2924 C-terminal domain after TEV cleavage of the His-TEV tag (Pantoea ananatis LMG 20103) (UniProt D4GKQ2). As to the kind of experiment: SEC.

Take “PANA_2923 immunity protein (natural protein)”: the stoichiometry N is 1.

As usually defined, the stoichiometry N is a count of units in the complex or per binding partner.

These data come from paper doi:10.1101/2025.07.23.666440.
